The assay has as its target T1, SARS-CoV-2 spike protein expressed on Ramos-S cells (SARS-CoV-2, UniProt P0DTC2 14-1273).
T1 construct: whole, on cells; also called S protein; Ramos cells expressing transfected spike protein
The experiment in a line: flow cytometry on Ramos-S cells. On the technique in general: Flow cytometry measures light scatter and fluorescence of single cells or particles in a stream.

B1: CC40.8-H429F (antibody)
heavy: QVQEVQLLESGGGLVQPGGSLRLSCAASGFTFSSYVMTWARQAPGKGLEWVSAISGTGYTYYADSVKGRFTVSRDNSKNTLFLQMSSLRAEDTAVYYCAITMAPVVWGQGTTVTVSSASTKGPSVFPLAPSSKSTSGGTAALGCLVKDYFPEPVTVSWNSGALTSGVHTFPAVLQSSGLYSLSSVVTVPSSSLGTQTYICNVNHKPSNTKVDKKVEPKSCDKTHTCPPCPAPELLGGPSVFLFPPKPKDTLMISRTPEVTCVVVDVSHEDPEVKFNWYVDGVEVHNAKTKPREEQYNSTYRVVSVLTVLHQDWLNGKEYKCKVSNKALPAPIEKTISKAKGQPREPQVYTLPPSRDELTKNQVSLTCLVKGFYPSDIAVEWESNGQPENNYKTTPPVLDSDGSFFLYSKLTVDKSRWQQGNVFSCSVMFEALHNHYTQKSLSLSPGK
light: SYELTQPPSVSVSPGQTARITCSGDALPKRYAYWYQQKSGQAPILVIYEDKKRPSGIPERLSGSKSGTVATLTISGAQVEDEADYYCYSTDSSGNHAVFGGGTQLTVLGQPKAAPSVFIFPPSDEQLKSGTASVVCLLNNFYPREAKVQWKVDNALQSGNSQESVTEQDSKDSTYSLSSTLTLSKADYEKHKVYACEVTHQGLSSPVTKSFNRGEC
notes: also called CC40.8-HF
Take B1: the binding result was “binds”.

(Values after patent US20260158160A1 (MACFARLANE BURNET INSTITUTE FOR MEDICAL RESEARCH AND PUBLIC …, published 2026).)
